In US20220154204:

Biological target: T1, GST-OST1/SnRK2.6, Q940H6
T1 chain: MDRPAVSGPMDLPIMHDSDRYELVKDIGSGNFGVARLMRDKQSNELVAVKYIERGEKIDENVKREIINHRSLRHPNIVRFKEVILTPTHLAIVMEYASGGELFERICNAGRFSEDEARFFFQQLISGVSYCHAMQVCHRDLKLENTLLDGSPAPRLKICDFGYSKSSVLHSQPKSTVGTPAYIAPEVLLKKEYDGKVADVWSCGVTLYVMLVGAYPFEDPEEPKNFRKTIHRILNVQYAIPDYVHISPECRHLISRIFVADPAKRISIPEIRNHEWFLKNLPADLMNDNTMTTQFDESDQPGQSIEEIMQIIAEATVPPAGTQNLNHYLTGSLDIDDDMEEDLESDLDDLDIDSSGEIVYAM

B1: MPK12 (protein)
chain: MSGESSSGSTEHCIKVVPTHGGRYVQYNVYGQLFEVSRKYVPPIRPIGRGACGIVCAAVNSVTGEKVAIKKIGNAFDNIIDAKRTLREIKLLRHMDHENVITIKDIVRPPQRDIFNDVYIVYELMDTDLQRILRSNQTLTSDQCRFLVYQLLRGLKYVHSANILHRDLRPSNVLLNSKNELKIGDFGLARTTSDTDFMTEYVVTRWYRAPELLLNCSEYTAAIDIWSVGCILGEIMTGQPLFPGKDYVHQLRLITELVGSPDNSSLGFLRSDNARRYVRQLPRYPKQQFAARFPKMPTTAIDLLERMLVFDPNRRISVDEALGHAYLSPHHDVAKEPVCSTPFSFDFEHPSCTEEHIKELIYKESVKFNPDH
in vitro phosphorylation assay with 32P-ATP after dephosphorylation of OST1: did not phosphorylate OST1/SnRK2.6 after dephosphorylation
